Reference: patent US20240342207, “MODIFIED NUCLEIC ACID COMPOSITIONS AND ASSOCIATED METHODS FOR TREATMENT OF PHENYLKETONURIA” (BOARD OF REGENTS, THE UNIVERSITY OF TEXAS SYSTEM, published 2024)
Positions count from the first letter of the chain named.

Assays:
Assay in all cases: EMSA; one of 13 of 17 binding mutants; affinity not decreased
Conditions in all cases: tags: His-tag, E. coli; stem-loop
PAH F299C = biological target: T1, PAH F299C (Homo sapiens, UniProt P00439 P00439:1-452, F299C)
T1 sequence: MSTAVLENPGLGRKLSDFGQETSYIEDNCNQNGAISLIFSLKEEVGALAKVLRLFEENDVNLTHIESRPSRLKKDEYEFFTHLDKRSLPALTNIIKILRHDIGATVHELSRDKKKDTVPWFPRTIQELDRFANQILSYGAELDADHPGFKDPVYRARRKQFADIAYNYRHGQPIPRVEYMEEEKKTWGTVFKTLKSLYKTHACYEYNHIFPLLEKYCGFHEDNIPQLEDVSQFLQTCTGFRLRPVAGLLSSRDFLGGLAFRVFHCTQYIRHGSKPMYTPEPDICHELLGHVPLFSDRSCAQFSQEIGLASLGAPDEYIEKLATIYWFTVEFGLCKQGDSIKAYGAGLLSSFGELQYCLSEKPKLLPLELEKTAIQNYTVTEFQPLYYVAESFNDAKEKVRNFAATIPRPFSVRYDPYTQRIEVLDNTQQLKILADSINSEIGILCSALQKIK

PAH F55L = biological target: T2, PAH F55L (Homo sapiens, UniProt P00439 P00439:1-452, F55L)
T2 sequence: T1 sequence with F55L, C299F

PAH A47V = biological target: T3, PAH A47V (Homo sapiens, UniProt P00439 P00439:1-452, A47V)
T3 sequence: T1 sequence with A47V, C299F

PAH I65S = biological target: T4, PAH I65S (Homo sapiens, UniProt P00439 P00439:1-452, I65S)
T4 sequence: T1 sequence with I65S, C299F

PAH I283N = biological target: T5, PAH I283N (Homo sapiens, UniProt P00439 P00439:1-452, I283N)
T5 sequence: T1 sequence with I283N, C299F

Measured: binding result

B1: HULC 181-201 mimic (ssRNA)
RNA: CAAAAUGCAUAUGUAUCUUUG
binds: all assays above
